Source: patent US20200317768A1 (published 2020)
Where a chain is given by its changes, count along the chain named. Values belong to the binder of their own block, whether it stands above or below them.

How the values were obtained:
[1] = target: T1, Human latent myostatin (human, UniProt O14793 25-266; O14793 267-375); assay: SPR 37C; KD pH 5.8 / KD pH 7.4
T1 construct: also called human myostatin latent form
T1 sequence 1: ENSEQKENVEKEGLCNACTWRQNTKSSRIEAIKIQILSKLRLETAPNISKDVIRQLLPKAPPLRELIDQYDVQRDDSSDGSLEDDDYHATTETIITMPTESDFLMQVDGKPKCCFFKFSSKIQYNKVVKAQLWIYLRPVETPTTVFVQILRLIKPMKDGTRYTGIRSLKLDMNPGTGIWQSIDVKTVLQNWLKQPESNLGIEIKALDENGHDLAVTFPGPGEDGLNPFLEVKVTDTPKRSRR
T1 sequence 2: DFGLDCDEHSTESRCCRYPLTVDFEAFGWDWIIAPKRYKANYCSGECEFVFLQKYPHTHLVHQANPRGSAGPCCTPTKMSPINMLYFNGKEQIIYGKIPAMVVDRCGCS
Experimental: (§1) ProA/G (Pierce) was immobilized onto all flow cells of a CM4 chip using an amine coupling kit (GE Healthcare). All antibodies and analytes were prepared in ACES pH7.4 or pH5.8 buffer containing 20 mM ACES, 150 mM NaCl, 1.2 mM CaCl₂, 0.05% TWEEN®) 20, 0.005% NaN₃. […] Human, cyno, and mouse latent myostatin was injected at 3.125 to 50 nM prepared by two-fold serial dilution, followed by dissociation. The sensor surface was regenerated each cycle with 10 mM Glycine HCl pH1.5. Binding affinity was determined by processing and fitting the data to a 1:1 binding model using BIACORE® T200 Evaluation software, version 2.0 (GE Healthcare).

[2] = target: T2, Cynomolgus monkey latent myostatin (cynomolgus monkey, UniProt Q95J86 25-266; Q95J86 267-375); assay: SPR 37C; KD pH 5.8 / KD pH 7.4
T2 construct: Latent form = complex of two propeptides and the mature dimer; also called Cyno latent myostatin
T2 sequence 1: T1 sequence 1 with V52A
T2 sequence 2: T1 sequence 2
Experimental: as §1

[3] = target: T3, Mouse latent myostatin (mouse, UniProt O08689 26-267; O08689 268-376); assay: SPR 37C; KD pH 5.8 / KD pH 7.4
T3 construct: Latent form = complex of two propeptides and the mature dimer
T3 sequence 1: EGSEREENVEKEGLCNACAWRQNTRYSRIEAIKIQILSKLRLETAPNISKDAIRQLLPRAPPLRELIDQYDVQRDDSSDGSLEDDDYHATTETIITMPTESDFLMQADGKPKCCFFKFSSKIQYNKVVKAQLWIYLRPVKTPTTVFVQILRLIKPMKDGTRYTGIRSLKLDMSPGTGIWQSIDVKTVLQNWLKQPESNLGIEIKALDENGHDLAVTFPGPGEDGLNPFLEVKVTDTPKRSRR
T3 sequence 2: T1 sequence 2
Experimental: as §1

[4] = target: T1, Human latent myostatin; assay: SPR (BIACORE T200) 37C, pH 5.8, antibody captured by ProA/G
Experimental: as §1

[5] = target: T2, Cynomolgus monkey latent myostatin; assay: as above
Experimental: as §1

[6] = target: T3, Mouse latent myostatin; assay: as above
Experimental: as §1

[7] = target: T1, Human latent myostatin; assay: SPR (BIACORE T200) 37C, pH 7.4, antibody captured by ProA/G
Experimental: as §1

[8] = target: T2, Cynomolgus monkey latent myostatin; assay: as above
Experimental: as §1

[9] = target: T3, Mouse latent myostatin; assay: as above
Experimental: as §1

[10] = target: T4, Human latent myostatin (human, UniProt O14793 25-266; O14793 267-375); assay: SPR (BIACORE), additional dissociation phase at pH5.8 after dissociation at pH7.4, Scrubber 2.0 fit
T4 construct: Biotinylated in the ELISAs; also called human myostatin latent form
T4 sequence 1: T1 sequence 1
T4 sequence 2: T1 sequence 2
Experimental: Each amino acid in the CDRs was individually mutated to histidine using In-Fusion HD Cloning Kit (Clontech Inc, or Takara Bio company) according to the manufacturer's instructions. […] All histidine-substituted variants were evaluated by a modified BIACORE® assay as compared to that described above. Briefly, an additional dissociation phase at pH5.8 was integrated into the BIACORE® assay immediately after the dissociation phase at pH7.4. This is to assess the pH-dependent dissociation between antibody (Ab) and antigen (Ag) from the complexes formed at pH7.4 as opposed to the corresponding dissociation at pH5.8. The dissociation rate at pH5.8 buffer was determined by processing and fitting data using the Scrubber 2.0 (BioLogic Software) curve fitting software.
Antibodies with a combination of these mutations in the CDRs were then generated.

ratio of KD at pH 5.8/pH 7.4 [1]: 168 | ratio of KD at pH 5.8/pH 7.4 [2]: 109 | ratio of KD at pH 5.8/pH 7.4 [3]: 106 | Kd [4]: 45.8 nM | Kd [5]: 35.6 nM | Kd [6]: 28.7 nM | Kd [7]: 0.273 nM | Kd [8]: 0.326 nM | Kd [9]: 0.271 nM
B1: MS_M103240H795-SG1/M103202L1045-SK1 (antibody, human IgG1, kappa)
heavy: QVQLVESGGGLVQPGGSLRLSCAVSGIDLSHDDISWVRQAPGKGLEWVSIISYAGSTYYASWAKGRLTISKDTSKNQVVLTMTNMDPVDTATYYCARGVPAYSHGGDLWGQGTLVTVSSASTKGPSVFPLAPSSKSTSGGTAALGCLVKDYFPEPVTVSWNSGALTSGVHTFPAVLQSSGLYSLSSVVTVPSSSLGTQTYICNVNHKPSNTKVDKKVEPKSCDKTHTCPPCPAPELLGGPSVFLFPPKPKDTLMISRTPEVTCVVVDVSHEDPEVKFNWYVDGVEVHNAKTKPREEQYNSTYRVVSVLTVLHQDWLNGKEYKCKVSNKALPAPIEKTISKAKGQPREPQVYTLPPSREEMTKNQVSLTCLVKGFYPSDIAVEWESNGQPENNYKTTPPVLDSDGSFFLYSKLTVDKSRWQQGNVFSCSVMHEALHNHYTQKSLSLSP
light: DIVMTQSPATLSLSPGERATLSCTTSQSVYHENWLSWFQQKPGQPPKLLIYWASTLAYGVPSRFSGSGSGTDFTLTISSLQPEDAATYYCAGGYGGGRYAFGQGTKVEIKRTVAAPSVFIFPPSDEQLKSGTASVVCLLNNFYPREAKVQWKVDNALQSGNSQESVTEQDSKDSTYSLSSTLTLSKADYEKHKVYACEVTHQGLSSPVTKSFNRGEC
notes: also called MS1032LO19-SG1

koff [10]: 0.00088 s⁻¹
B2: Ab003 (M103205H009 / M103202L000) (antibody, human IgG1, kappa, V domains shown)
VH: QVTLKESGPVLVKPTETLTLTCTVSGIDLSSYDISWVRQAPGKGLEWVGIISHAGSTYYASWAKGRLTISKDTSKNQVVLTMTNMDPVDTATYYCARGVPAYSTGGDLWGQGTLVTVSS
VL: DIVMTQSPATLSLSPGERATLSCQSSQSVYDNNWLSWFQQKPGQPPKLLIYWASTLASGVPSRFSGSGSGTDFTLTISSLQPEDAATYYCAGGYGGGLYAFGQGTKVEIKR
notes: Histidine-substituted variant of MS1032LO00-SG1

ratio of KD at pH 5.8/pH 7.4 [1]: 92 | ratio of KD at pH 5.8/pH 7.4 [2]: 41 | ratio of KD at pH 5.8/pH 7.4 [3]: 38 | Kd [4]: 25.5 nM | Kd [5]: 14.1 nM | Kd [6]: 9.88 nM | Kd [7]: 0.276 nM | Kd [8]: 0.34 nM | Kd [9]: 0.259 nM
B3: MS_M103240H1246-SG1/M103202L1045-SK1 (antibody, human IgG1, kappa, V domains shown)
VH: QVQLVESGGGLVQPGGSLRLSCAVSGIDLSHEDISWVRQAPGKGLEWVSIISYAGSKYYASWAKGRLTISKDTSKNQVVLTMTNMDPVDTATYYCARGVPAYSHGGDLWGQGTLVTVSS
VL: B2 VL with Q24T, S25T, D31H, N32E, S58Y, L98R
notes: also called MS1032LO25-SG1

koff [10]: 8.58e-05 s⁻¹
B4: Ab006 (M103205H000 / M103202L008) (antibody, human IgG1, kappa, V domains shown)
VH: B2 VH with H53Y
VL: B2 VL with D31H
notes: as for B2

koff [10]: 7.63e-05 s⁻¹
B5: Ab005 (M103205H028 / M103202L000) (antibody, human IgG1, kappa, V domains shown)
VH: B2 VH with H53Y, T104H
VL: B2 VL
notes: as for B2

koff [10]: 0.000186 s⁻¹
B6: Ab004 (M103205H026 / M103202L000) (antibody, human IgG1, kappa, V domains shown)
VH: B2 VH with H53Y, Y102H
VL: B2 VL
notes: as for B2

koff [10]: 0.000415 s⁻¹
B7: Ab007 (M103205H028 / M103202L008) (antibody, human IgG1, kappa, V domains shown)
VH: B2 VH with H53Y, T104H
VL: B2 VL with D31H
notes: as for B2
